Experimental data as given in patent US20190338048A1.
Where two headings read alike, the source gives them in different places.

What was measured:
[1] = biological target: CAT-2200 lambda light chain E124Q_T131R; experiment: LCCA, SPR
[2] = biological target: CAT-2200 lambda light chain E124Q_T131K; experiment: LCCA, SPR
[3] = biological target: CAT-2200 lambda light chain E124Q_T131R; experiment: LCCA, SPR; remark: listed apart in the source
[4] = biological target: CAT-2200 lambda light chain E124Q_T131K; experiment: LCCA, SPR; remark: listed apart in the source
[5] = biological target: CAT-2200 lambda light chain E124Q_T131R; experiment: LCCA, SPR; remark: listed apart in the source
[6] = biological target: CAT-2200 lambda light chain V133D_Y178T; experiment: LCCA, SPR
[7] = biological target: CAT-2200 lambda light chain V133D_Y178T; experiment: LCCA, SPR; remark: listed apart in the source
[8] = biological target: CAT-2200 lambda light chain T131S_V133D_Y178T; experiment: LCCA, SPR
[9] = biological target: CAT-2200 lambda light chain V133D_Y178T; experiment: LCCA, SPR; remark: listed apart in the source
[10] = biological target: Pertuzumab kappa light chain S176K_T178K; experiment: LCCA, SPR
[11] = biological target: Pertuzumab kappa light chain S176K_T178R; experiment: LCCA, SPR
[12] = biological target: Pertuzumab kappa light chain S176K_T178K (L2), HA-tagged; experiment: LCCA, SPR of light-chain tags
[13] = biological target: Pertuzumab kappa light chain S176K_T178R (L2), HA-tagged; experiment: LCCA, SPR of light-chain tags
[14] = biological target: Pertuzumab kappa light chain S176K_T178L (L2), HA-tagged; experiment: LCCA, SPR of light-chain tags
[15] = biological target: Pertuzumab kappa light chain S176K_T178K (L2), HA-tagged; experiment: LCCA, SPR of light-chain tags; remark: listed apart in the source
[16] = biological target: Pertuzumab kappa light chain S176K_T178R (L2), HA-tagged; experiment: LCCA, SPR of light-chain tags; remark: listed apart in the source
[17] = biological target: Pertuzumab kappa light chain S176K_T178L (L2), HA-tagged; experiment: LCCA, SPR of light-chain tags; remark: listed apart in the source
[18] = biological target: Pertuzumab kappa light chain S176K_T178K (L2), HA-tagged; experiment: LCCA, SPR of light-chain tags; remark: listed apart in the source
[19] = biological target: Pertuzumab kappa light chain S176K_T178R (L2), HA-tagged; experiment: LCCA, SPR of light-chain tags; remark: listed apart in the source
[20] = biological target: Pertuzumab kappa light chain S176K_T178L (L2), HA-tagged; experiment: LCCA, SPR of light-chain tags; remark: listed apart in the source
[21] = biological target: Pertuzumab kappa light chain S176K_T178K (L2), HA-tagged; experiment: LCCA, SPR of light-chain tags; remark: listed apart in the source
[22] = biological target: Pertuzumab kappa light chain S176K_T178R (L2), HA-tagged; experiment: LCCA, SPR of light-chain tags; remark: listed apart in the source
[23] = biological target: Pertuzumab kappa light chain S176K_T178L (L2), HA-tagged; experiment: LCCA, SPR of light-chain tags; remark: listed apart in the source
[24] = biological target: Pertuzumab kappa light chain S176K_T178K (L2), HA-tagged; experiment: LCCA, SPR of light-chain tags; remark: listed apart in the source
[25] = biological target: Pertuzumab kappa light chain S176K_T178R (L2), HA-tagged; experiment: LCCA, SPR of light-chain tags; remark: listed apart in the source
[26] = biological target: Pertuzumab kappa light chain V133A_S176K (L2), HA-tagged; experiment: LCCA, SPR of light-chain tags
[27] = biological target: Pertuzumab kappa light chain V133G_S176R (L2), HA-tagged; experiment: LCCA, SPR of light-chain tags
[28] = biological target: Pertuzumab kappa light chain V133A_S176K (L2), HA-tagged; experiment: LCCA, SPR of light-chain tags; remark: listed apart in the source
[29] = biological target: Pertuzumab kappa light chain V133G_S176R (L2), HA-tagged; experiment: LCCA, SPR of light-chain tags; remark: listed apart in the source
[30] = biological target: Pertuzumab kappa light chain S131R_V133G_S176R (L2), HA-tagged; experiment: LCCA, SPR of light-chain tags
[31] = biological target: Pertuzumab kappa light chain S131K_V133G_S176R (L2), HA-tagged; experiment: LCCA, SPR of light-chain tags
[32] = biological target: Pertuzumab kappa light chain S131R_V133G_S176R (L2), HA-tagged; experiment: LCCA, SPR of light-chain tags; remark: listed apart in the source
[33] = biological target: Pertuzumab kappa light chain S131K_V133G_S176R (L2), HA-tagged; experiment: LCCA, SPR of light-chain tags; remark: listed apart in the source
[34] = biological target: Pertuzumab kappa light chain S131R_V133G_S176R (L2), HA-tagged; experiment: LCCA, SPR of light-chain tags; remark: listed apart in the source
[35] = biological target: Pertuzumab kappa light chain S131K_V133G_S176R (L2), HA-tagged; experiment: LCCA, SPR of light-chain tags; remark: listed apart in the source

**Q.** How did the H1L1:H1L2 normalized median scalar value ln(r1/f1) [1] turn out when “CAT-2200 Fab heavy chain L143E_K145T_Q179E” was run?
**A.** Its H1L1:H1L2 normalized median scalar value ln(r1/f1) is 0.28.

**Q.** What about the H1L1:H1L2 normalized median scalar value ln(r1/f1) [2] of the same substance?
**A.** The H1L1:H1L2 normalized median scalar value ln(r1/f1) was -0.04.

**Q.** And the H1L1:H1L2 normalized median scalar value ln(r1/f1) [3]?
**A.** Its H1L1:H1L2 normalized median scalar value ln(r1/f1) is 2.87.

**Q.** What about the H1L1:H1L2 normalized median scalar value ln(r1/f1) [4] of the same substance?
**A.** The H1L1:H1L2 normalized median scalar value ln(r1/f1) was 3.04.

**Q.** What about the H1L1:H1L2 normalized median scalar value ln(r1/f1) [5] of the same substance?
**A.** The H1L1:H1L2 normalized median scalar value ln(r1/f1) was 1.65.

**Q.** How did the H1L1:H1L2 normalized median scalar value ln(r1/f1) [6] turn out when CAT-2200 Fab heavy chain S186K_S188T was run?
**A.** Its H1L1:H1L2 normalized median scalar value ln(r1/f1) is 1.84.

**Q.** And the H1L1:H1L2 normalized median scalar value ln(r1/f1) [7]?
**A.** The H1L1:H1L2 normalized median scalar value ln(r1/f1) was 0.91.

**Q.** And the H1L1:H1L2 normalized median scalar value ln(r1/f1) [8]?
**A.** The H1L1:H1L2 normalized median scalar value ln(r1/f1) was -0.34.

**Q.** What about the H1L1:H1L2 normalized median scalar value ln(r1/f1) [9] of the same substance?
**A.** Its H1L1:H1L2 normalized median scalar value ln(r1/f1) is 0.54.

**Q.** What does the source list for “Pertuzumab Fab heavy chain K145T_V177D_S188D”?
**A.** H2L2:H2L1 normalized median ratio [10]: 84%; H2L2:H2L1 normalized median scalar value ln(r1/f1) [10]: 1.68; H2L2:H2L1 normalized median scalar value ln(r1/f1) [11]: 1.5; H2L2:H2L1 normalized median ratio [7]: 16%

**Q.** “Pertuzumab Fab heavy chain K145T_V177D_S188D (H2)” was tested. Which H2L2:H2L1 normalized median scalar value ln(r1/f1) [12] did it give?
**A.** The H2L2:H2L1 normalized median scalar value ln(r1/f1) was 1.83.

**Q.** And the H2L2:H2L1 normalized median scalar value ln(r1/f1) [13]?
**A.** Its H2L2:H2L1 normalized median scalar value ln(r1/f1) is 1.64.

**Q.** What about the H2L2:H2L1 normalized median scalar value ln(r1/f1) [14] of the same substance?
**A.** Its H2L2:H2L1 normalized median scalar value ln(r1/f1) is 2.29.

**Q.** And the H2L2:H2L1 normalized median scalar value ln(r1/f1) [15]?
**A.** The H2L2:H2L1 normalized median scalar value ln(r1/f1) was 1.93.

**Q.** And the H2L2:H2L1 normalized median scalar value ln(r1/f1) [16]?
**A.** Its H2L2:H2L1 normalized median scalar value ln(r1/f1) is 1.59.

**Q.** What about the H2L2:H2L1 normalized median scalar value ln(r1/f1) [17] of the same substance?
**A.** The H2L2:H2L1 normalized median scalar value ln(r1/f1) was 1.59.

**Q.** And the H2L2:H2L1 normalized median scalar value ln(r1/f1) [18]?
**A.** Its H2L2:H2L1 normalized median scalar value ln(r1/f1) is 1.95.

**Q.** And the H2L2:H2L1 normalized median scalar value ln(r1/f1) [19]?
**A.** Its H2L2:H2L1 normalized median scalar value ln(r1/f1) is 1.9.

**Q.** What about the H2L2:H2L1 normalized median scalar value ln(r1/f1) [20] of the same substance?
**A.** The H2L2:H2L1 normalized median scalar value ln(r1/f1) was 1.52.

**Q.** What about the H2L2:H2L1 normalized median scalar value ln(r1/f1) [21] of the same substance?
**A.** The H2L2:H2L1 normalized median scalar value ln(r1/f1) was 2.4.

**Q.** And the H2L2:H2L1 normalized median scalar value ln(r1/f1) [22]?
**A.** The H2L2:H2L1 normalized median scalar value ln(r1/f1) was 2.3.

**Q.** And the H2L2:H2L1 normalized median scalar value ln(r1/f1) [23]?
**A.** Its H2L2:H2L1 normalized median scalar value ln(r1/f1) is 2.11.

**Q.** What about the H2L2:H2L1 normalized median scalar value ln(r1/f1) [24] of the same substance?
**A.** The H2L2:H2L1 normalized median scalar value ln(r1/f1) was 1.09.

**Q.** And the H2L2:H2L1 normalized median scalar value ln(r1/f1) [25]?
**A.** Its H2L2:H2L1 normalized median scalar value ln(r1/f1) is 1.75.

**Q.** For Pertuzumab Fab heavy chain L124E (H2), which H2L2:H2L1 normalized median scalar value ln(r1/f1) [26] is on record?
**A.** The H2L2:H2L1 normalized median scalar value ln(r1/f1) was -0.15.

**Q.** What about the H2L2:H2L1 normalized median scalar value ln(r1/f1) [27] of the same substance?
**A.** The H2L2:H2L1 normalized median scalar value ln(r1/f1) was 0.25.

**Q.** And the H2L2:H2L1 normalized median scalar value ln(r1/f1) [28]?
**A.** The H2L2:H2L1 normalized median scalar value ln(r1/f1) was 1.69.

**Q.** And the H2L2:H2L1 normalized median scalar value ln(r1/f1) [29]?
**A.** The H2L2:H2L1 normalized median scalar value ln(r1/f1) was 2.32.

**Q.** How did the H2L2:H2L1 normalized median scalar value ln(r1/f1) [30] turn out when “Pertuzumab Fab heavy chain L124E_K145T_Q179E (H2)” was run?
**A.** The H2L2:H2L1 normalized median scalar value ln(r1/f1) was 2.51.

**Q.** And the H2L2:H2L1 normalized median scalar value ln(r1/f1) [31]?
**A.** Its H2L2:H2L1 normalized median scalar value ln(r1/f1) is 2.21.

**Q.** And the H2L2:H2L1 normalized median scalar value ln(r1/f1) [32]?
**A.** Its H2L2:H2L1 normalized median scalar value ln(r1/f1) is 2.85.

**Q.** What about the H2L2:H2L1 normalized median scalar value ln(r1/f1) [33] of the same substance?
**A.** Its H2L2:H2L1 normalized median scalar value ln(r1/f1) is 2.94.

**Q.** What about the H2L2:H2L1 normalized median scalar value ln(r1/f1) [34] of the same substance?
**A.** Its H2L2:H2L1 normalized median scalar value ln(r1/f1) is 2.42.

**Q.** What about the H2L2:H2L1 normalized median scalar value ln(r1/f1) [35] of the same substance?
**A.** The H2L2:H2L1 normalized median scalar value ln(r1/f1) was 2.41.
